Source: PMC5454392, “Selective BET bromodomain inhibition as an antifungal therapeutic strategy” (Nature Communications, 2017)
Several values for one entry are separate records, joined by “and”; a condition that tells them apart may be missing. Equal entries are not always repeated. Where two headings read alike, the source gives them in different places.

Assays:
CaBdf1 BD1 [1] = molecular target: T1, CaBdf1 BD1 (Candida albicans, UniProt Q5A4W8); test: HTRF assay, inhibition of BD binding to H4ac4 peptide; set-up: species or system C. albicans; settings: HTRF, H4ac4 peptide, BETi, maximal concentration 10 μM
T1 construct: made in house; host or cells: E. coli BL21(DE3)

CaBdf1 BD2 [2] = molecular target: T2, CaBdf1 BD2 (Candida albicans, UniProt Q5A4W8); test: as above; set-up: made in house; host or cells: E. coli BL21(DE3)
CaBdf1 BD2 [3] = molecular target: T2, CaBdf1 BD2; test: Isothermal titration calorimetry (ITC); assay type: binding; set-up: His tag with TEV site (N, cleaved yes); made in house; host or cells: E. coli BL21(DE3); settings: ITC
Method: (§1) Proteins used for crystallization and for ITC. […] Cells were resuspended in buffer A (50 mM Tris-HCl pH 7.5, 300 mM NaCl, 10% glycerol, 25 mM imidazole, 5 mM β-mercaptoethanol and protease inhibitors) and lysed by sonication. The cleared lysate was incubated with Ni-NTA resin (Qiagen) and washed with buffer A containing 0.5 M NaCl. Proteins were eluted with 250 mM imidazole, dialysed overnight in the presence of His-tagged TEV protease against buffer A containing no imidazole and incubated with Ni-NTA resin to remove His-tagged species. Proteins were further purified on a Superdex 75 10/300 (GE Healthcare) column in 50 mM Hepes pH 7.5, 150 mM NaCl, 0.5 mM dithiothreitol (DTT). Proteins were concentrated to >20 mg ml^−1 on a Centricon device (Millipore) and used for ITC, TSA and crystallization experiments. […] Expression and purification were performed as above, except that buffer A was replaced by buffer B (50 mM Hepes pH 7.5, 500 mM NaCl, 5% glycerol, 5 mM imidazole and protease inhibitors) and gel filtration was performed in 10 mM Hepes pH 7.5, 500 mM NaCl and 5% glycerol.
(§2) Calorimetric experiments were performed on a NanoITC calorimeter (TA Instruments) at 25 °C while stirring at 250 r.p.m. All proteins were buffer exchanged by gel filtration into 50 mM Hepes pH 7.5, 150 mM NaCl, 0.5 mM DTT, except for SMARCA2 and SMARCA4A BDs, which were exchanged into 10 mM Hepes pH 7.5, 500 mM NaCl and 5% glycerol. […] Titrations consisted of an initial injection of 1.5 μl followed by 19 identical injections of 2.5 μl made at time intervals of 5 min. ITC data were corrected for the heat of dilution of injectant into buffer and analysed with software provided by the manufacturer using a single binding site model. The first data point was excluded from the analysis. Thermodynamic parameters determined from the ITC data are summarized in Supplementary Table 1.

CaBdf1 BD1 [4] = molecular target: T1, CaBdf1 BD1; test: Isothermal titration calorimetry (ITC); assay type: binding; settings: ITC
Method: as §1, §2

human Brd4 BD1 = human Brd4 BD1 (Homo sapiens, UniProt O60885); test: Isothermal titration calorimetry (ITC); assay type: binding; set-up: human Brd4 BD1 (residues 22–204); His tag with TEV site (N, cleaved yes); made in house; host or cells: E. coli BL21(DE3); settings: ITC, 25 °C
Method: as §1, §2

[5] = system: 32 representative human (BET and non-BET) BDs; set-up: method as in earlier work; settings: cited from earlier work
CaBdf1 BD2 Y425F = molecular target: T3, CaBdf1 BD2 Y425F (Candida albicans, UniProt Q5A4W8, Y425F); test: Histone peptide microarray binding, YF mutant;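 for CaBdf1 BD2 Normalized (0 to 100%) YF mutant: normalized to spotted c-myc peptide positive control signal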; set-up: species or system C. albicans; settings: YF mutant BD2; for CaBdf1 BD2 Normalized (0 to 100%) YF mutant: normalized array signal; for CaBdf1 BD2 Raw data YF mutant: peptide array signal
T3 construct: made in house; host or cells: E. coli BL21(DE3), inferred from the wild-type GST construct
T3 sequence (Q5A4W8 361-501 Y425F): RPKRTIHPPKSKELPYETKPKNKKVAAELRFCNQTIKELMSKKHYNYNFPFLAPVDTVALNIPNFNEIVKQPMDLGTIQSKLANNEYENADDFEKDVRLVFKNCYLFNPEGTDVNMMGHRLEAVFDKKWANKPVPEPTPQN
Method: (§3) In short, arrays were blocked and incubated with 1 μM of purified CaBdf1 BD1 or BD2. Arrays were incubated with recombinant BDs for 2 h at 4 °C in binding buffer (Tris-HCl 50 mM pH 7.4, NP-40 0.1%, NaCl 150 mM, glycerol 10%). […] Assays were performed in duplicate. Images were acquired on a Bio-Rad ChemiDoc XRS Imaging machine and data were quantified using the array analyser software provided by Active Motif.

CaBdf1 BD1 Y248F = molecular target: T4, CaBdf1 BD1 Y248F (Candida albicans, UniProt Q5A4W8, Y248F); test: Histone peptide microarray binding, YF mutant;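 for CaBdf1 BD1 Normalized (0 to 100%) YF mutant: normalized to spotted c-myc peptide positive control signal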; set-up: species or system C. albicans; settings: YF mutant BD1; for CaBdf1 BD1 Normalized (0 to 100%) YF mutant: normalized array signal; for CaBdf1 BD1 Raw data YF mutant: peptide array signal
T4 construct: made in house; host or cells: E. coli BL21(DE3), inferred from the wild-type GST construct
T4 sequence (Q5A4W8 193-327 Y248F): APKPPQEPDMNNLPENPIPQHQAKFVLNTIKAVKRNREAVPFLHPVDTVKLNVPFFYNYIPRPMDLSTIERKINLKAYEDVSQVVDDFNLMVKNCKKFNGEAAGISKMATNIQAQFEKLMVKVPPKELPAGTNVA
Method: as §3

CaBdf1 BD2 [6] = molecular target: T5, CaBdf1 BD2 (Candida albicans, UniProt Q5A4W8); assay type: binding; settings: wild-type BD2; for CaBdf1 BD2 Normalized (0 to 100%) WT: normalized array signal; for CaBdf1 BD2 Raw data WT: peptide array signal;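 for CaBdf1 BD2 Normalized (0 to 100%) WT: normalized to spotted c-myc peptide positive control signal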
T5 construct: made in house; host or cells: E. coli BL21(DE3)
T5 sequence (Q5A4W8 whole entry, looked up): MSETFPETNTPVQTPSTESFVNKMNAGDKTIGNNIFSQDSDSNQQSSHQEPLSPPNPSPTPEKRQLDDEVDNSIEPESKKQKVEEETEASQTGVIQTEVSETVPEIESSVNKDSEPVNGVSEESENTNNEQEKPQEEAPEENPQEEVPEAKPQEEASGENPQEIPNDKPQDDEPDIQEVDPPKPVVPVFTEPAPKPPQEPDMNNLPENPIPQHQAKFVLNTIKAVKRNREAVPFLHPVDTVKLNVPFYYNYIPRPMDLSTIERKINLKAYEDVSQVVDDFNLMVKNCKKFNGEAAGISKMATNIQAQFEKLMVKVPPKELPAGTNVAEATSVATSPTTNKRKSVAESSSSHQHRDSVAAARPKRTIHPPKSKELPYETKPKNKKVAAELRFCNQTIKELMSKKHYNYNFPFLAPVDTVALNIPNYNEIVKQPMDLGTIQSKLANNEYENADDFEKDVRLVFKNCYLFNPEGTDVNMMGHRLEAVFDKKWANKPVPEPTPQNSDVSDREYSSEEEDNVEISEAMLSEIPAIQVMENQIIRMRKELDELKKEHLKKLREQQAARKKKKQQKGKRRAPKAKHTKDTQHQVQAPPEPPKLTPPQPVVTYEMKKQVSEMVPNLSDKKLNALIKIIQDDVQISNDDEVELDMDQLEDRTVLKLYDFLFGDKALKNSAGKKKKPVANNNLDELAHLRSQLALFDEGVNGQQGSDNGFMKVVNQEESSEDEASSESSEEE
Method: (§4) In short, arrays were blocked and incubated with 1 μM of purified CaBdf1 BD1 or BD2. Arrays were incubated with recombinant BDs for 2 h at 4 °C in binding buffer (Tris-HCl 50 mM pH 7.4, NP-40 0.1%, NaCl 150 mM, glycerol 10%). […] Assays were performed in duplicate.

CaBdf1 BD1 [7] = molecular target: T6, CaBdf1 BD1 (Candida albicans, UniProt Q5A4W8); assay type: binding; settings: wild-type BD1; for CaBdf1 BD1 Normalized (0 to 100%) WT: normalized array signal; for CaBdf1 BD1 Raw data WT: peptide array signal;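 for CaBdf1 BD1 Normalized (0 to 100%) WT: normalized to spotted c-myc peptide positive control signal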
T6 construct: made in house; host or cells: E. coli BL21(DE3)
T6 sequence (Q5A4W8 whole entry, looked up): T5 sequence (Q5A4W8 whole entry, looked up)
Method: as §4

Row | Compound | CaBdf1 BD2 Normalized (0 to 100%) YF mutant (CaBdf1 BD2 Y425F) [%] | CaBdf1 BD2 Raw data YF mutant (CaBdf1 BD2 Y425F; first of two raw-data columns) | CaBdf1 BD2 Raw data YF mutant (CaBdf1 BD2 Y425F) | CaBdf1 BD1 Normalized (0 to 100%) YF mutant (CaBdf1 BD1 Y248F) [%] | CaBdf1 BD1 Raw data YF mutant (CaBdf1 BD1 Y248F; first of two raw-data columns) | CaBdf1 BD1 Raw data YF mutant (CaBdf1 BD1 Y248F) | CaBdf1 BD2 Normalized (0 to 100%) WT (CaBdf1 BD2 [6]) [%] | CaBdf1 BD2 Raw data WT (CaBdf1 BD2 [6]; first of two raw-data columns) | CaBdf1 BD2 Raw data WT (CaBdf1 BD2 [6]) | CaBdf1 BD1 Normalized (0 to 100%) WT (CaBdf1 BD1 [7]) [%] | CaBdf1 BD1 Raw data WT (CaBdf1 BD1 [7]; first of two raw-data columns) | CaBdf1 BD1 Raw data WT (CaBdf1 BD1 [7]) | also measured
1 | CCOC(=O)Nc1cc(-c2ccc(C)c(NS(C)(=O)=O)c2)nn2c(C)nnc12 [Bromosporine, reference compound] | – | – | – | – | – | – | – | – | – | – | – | – | IC50 (CaBdf1 BD1 [1]; read-out: IC50 values): > 10 µM; IC50 (CaBdf1 BD2 [2]): 0.313 ± 0.002 µM
2 | COc1cc2c(cc1-c1c(C)noc1C)ncc1[nH]c(=O)n([C@H](C)c3ccccn3)c12 [IBET-151, reference compound] | – | – | – | – | – | – | – | – | – | – | – | – | IC50 (CaBdf1 BD1 [1]; read-out: IC50 values): 0.303 ± 0.12 µM; IC50 (CaBdf1 BD2 [2]): 1.47 ± 0.09 µM
3 | Cc1sc2c(c1C)C(c1ccc(Cl)cc1)=N[C@@H](CC(=O)OC(C)(C)C)c1nnc(C)n1-2 [JQ1, reference compound] | – | – | – | – | – | – | – | – | – | – | – | – | binding to CaBdf1 BD2 (in words) (CaBdf1 BD2 [3]): no binding was detected; binding to CaBdf1 BD1 (in words) (CaBdf1 BD1 [4]): no binding was detected; IC50 (CaBdf1 BD1 [1]; IC50 values): > 10 µM; N (stoichiometry) (human Brd4 BD1): 1.00 ± 0.03; TΔS (human Brd4 BD1): -2.935 kcal/mol; ΔH (human Brd4 BD1): -12.8 ± 0.12 kcal/mol; IC50 (CaBdf1 BD2 [2]; HTRF, H4ac4 peptide, BETi, maximal concentration 10 μM, read-out: IC50 values): ~10 µM
4 | COc1ccccc1S(=O)(=O)Nc1ccc2c(c1)CN(C)C(=O)N2 [PFI-1, reference compound] | – | – | – | – | – | – | – | – | – | – | – | – | IC50 (CaBdf1 BD1 [1]; read-out: IC50 values): > 10 µM; IC50 (CaBdf1 BD2 [2]): ~10 µM
5 | Cc1sc2c(c1C)C(c1ccc(Cl)cc1)=N[C@@H](CC(=O)NCCCCNC(=O)COc1cccc3c1C(=O)N(C1CCC(=O)NC1=O)C3=O)c1nnc(C)n1-2 (some centres unmarked) [dBET1] | – | – | – | – | – | – | – | – | – | – | – | – | BROMOscan signal, percent of control ([5]; CREBBP, EP300, FALZ and SMARCA4): 25-35%; BROMOscan signal, percent of control ([5]; six BET BDs): 0%; BROMOscan signal, percent of control ([5]; the other two BET BDs): 0.25% and 1.6%; BROMOscan signal, percent of control ([5]; the remaining BDs): > 35%
6 | A Rme2s T Kme1 Q T A Rme2s K S T G G K A P R K Q | 0.147 | 0.001456 | 0.001456 | 0.45 | 0.004458 | 0.01166 | 0.444 | 0.006863 | 0.01304 | 0.326 | 0.004276 | 0.004276 | –
7 | A Rme2s T Kme2 Q T A R Kme1 S T G G K A P R K Q | 0.244 | 0.002427 | 0.003398 | 0.762 | – | 0.005144 | 0.444 | 0.01441 | 0.005491 | 0.544 | 0.006414 | 0.005345 | –
8 | A Rme2s T Kme2 Q T A R Kme3 S T G G K A P R K Q | 0.44 | 0.004369 | 0.002427 | 0.312 | 0.003086 | 0.002058 | 0.444 | 0.01716 | 0.002745 | 0.145 | 0.004276 | 0.001603 | –
9 | A Rme2s T Kme2 Q T A Rme2s K S T G G K A P R K Q | 0.244 | 0.002427 | 0.004854 | 0.624 | 0.006173 | 0.003086 | 0.629 | 0.00755 | 0.01579 | 0.181 | 0.002672 | 0.003741 | –
10 | A Rme2s T Kme3 Q T A R Kme1 S T G G K A P R K Q | 0.195 | – | – | 0.831 | 0.00823 | 0.002743 | 0.444 | 0.01441 | 0.005491 | 0.471 | 0.00481 | 0.005879 | –
11 | A Rme2s T Kme3 Q T A R Kme3 S T G G K A P R K Q | 0.537 | 0.00534 | 0.002427 | 0.797 | 0.007888 | 0.003772 | 0.481 | 0.01784 | 0.002745 | 0.254 | 0.003207 | 0.004276 | –
12 | A Rme2s T Kme3 Q T A Rme2s K S T G G K A P R K Q | 0.244 | 0.002427 | 0.003398 | 0.346 | 0.003429 | 0.004115 | 0.444 | 0.008236 | 0.01167 | 0.29 | 0.003207 | 0.00481 | –
